Measured values as given in patent US20120258482A1, “PCNA […]” (INDIANA UNIVERSITY RESEARCH AND TECHNOLOGY CORPORATION, priority 2009, published 2012).

System: purified recombinant PCNA
Assay: Vapor diffusion assay of anti-Flag immunoprecipitates with purified recombinant PCNA
Type: biochemical, human
Details: anti-Flag immunoprecipitate from SK-Br-3 cells, 2 μg 6× His-PCNA
Experimental: Vapor diffusion assay. The assay was performed basically as previously described (Murray, E. D., Jr. & Clarke, S. J Biol Chem 259, 10722-10732 (1984). MCF7 breast cancer cell extracts were assayed 1-2 h in the presence of [^3H-methyl]-SAM (NEN). Following incubation, extracts were equilibrated with 100 mM NaOH with 2% SDS and spotted onto filter paper folded into an accordion pleat and placed into the neck of a vial above scintillation fluid. ^3H-methanol present in the scintillation fluid was measured the following day (See FIG. 1).
Protein expression and purification. HiTrap phenyl Sepharose HP and Superdex S200 columns were purchased from GE Biosciences. Chromatography was performed using a Biologic DuoFlow (BioRad). […] The CBP tag lacks both aspartic and glutamic acids. […] (Podust et al., Biochemistry 34, 8869-8875 (1995). A eukaryotic expression vector expressing a Flag-Arm1 fusion was transfected into and transiently expressed in SK-Br-3 cells with Fugene 6 (Roche). Anti-Flag immunoprecipitations were performed with Anti-Flag M2 Affintiy Gel (Sigma) and detected by Western analysis using anti-DDK antibodies (Origene). PIP-affinity beads were generated by covalently coupling synthetic p21 PIP peptide (Anaspec) to CH Sepharose (GE Biosciences). […]

B1: Flag-Arm1: Flag-tagged C6orf211 protein fusion, PCNA-dependent carboxyl methyltransferase (SEQ ID NO: 33) (protein, listed as Homo sapiens)
chain: MAVVPASLSGQDVGSFAYLTIKDRIPQILTKVIDTLHRHKSEFFEKHGEEGVEAEKKAISLLSKLRNELQTDKPFIPLVEKFVDTDIWNQYLEYQQSLLNESDGKSRWFYSPWLLVECYMYRRIHEAIIQSPPIDYFDVFKESKEQNFYGSQESIIALCTHLQQLIRTIEDLDENQLKDEFFKLLQISLWGNKCDLSLSGGESSSQNTNVLNSLEDLKPFILLNDMEHLWSLLSNCKKTREKASATRVYIVLDNSGFELVTDLILADFLLSSELATEVHFYGKTIPWFVSDTTIHDFNWLIEQVKHSNHKWMSKCGADWEEYIKMGKWVYHNHIFWTLPHEYCAMPQVAPDLYAELQKAHLILFKGDLNYRKLTGDRKWEFSVPFHQALNGFHPAPLCTIRTLKAEIQVGLQPGQGEQLLASEPSWWTTGKYGIFQYDGPL
modifications: Flag tag
PCNA-dependent carboxyl methyltransferase activity: Significant levels
